From article PMC9482650, “Quantitative fragmentomics allow affinity mapping of interactomes” (Nature Communications, 2022)

Columns and labels:
Test in all cases: holdup assay
Parameters in all cases: key: below the threshold = too weak to quantify, mostly under pKd 3.1 to 4
[1] = molecular target: T1, ARHGAP21, Q5T5U3
T1 sequence (Q5T5U3 45-169, limits assumed, looked up): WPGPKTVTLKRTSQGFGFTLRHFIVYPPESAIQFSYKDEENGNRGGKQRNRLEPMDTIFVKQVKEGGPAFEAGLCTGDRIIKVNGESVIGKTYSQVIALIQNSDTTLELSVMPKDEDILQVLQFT

[2] = molecular target: T2, ARHGEF11, O15085
T2 sequence (O15085 42-136, limits assumed, looked up): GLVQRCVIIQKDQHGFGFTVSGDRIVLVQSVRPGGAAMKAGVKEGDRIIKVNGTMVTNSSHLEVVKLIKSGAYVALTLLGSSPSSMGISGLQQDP

[3] = molecular target: T3, DLG3_2, Q92796
T3 sequence (Q92796 221-321, limits assumed, looked up): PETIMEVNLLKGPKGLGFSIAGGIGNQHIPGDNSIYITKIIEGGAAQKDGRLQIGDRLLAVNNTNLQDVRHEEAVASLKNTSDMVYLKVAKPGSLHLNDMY

[4] = molecular target: DLG5_1, Q8TDM6
[5] = molecular target: GORASP1, Q9BQQ3
[6] = molecular target: GRIP2_5, Q9C0E4
[7] = molecular target: IL16_1, Q14005
[8] = molecular target: IL16_4, Q14005
[9] = molecular target: Inadl_2, Q8NI35
[10] = molecular target: Inadl_8, Q8NI35
[11] = molecular target: LDB3, O75112
[12] = molecular target: T4, LNX2_2, Q8N448
T4 sequence (Q8N448 334-432, limits assumed, looked up): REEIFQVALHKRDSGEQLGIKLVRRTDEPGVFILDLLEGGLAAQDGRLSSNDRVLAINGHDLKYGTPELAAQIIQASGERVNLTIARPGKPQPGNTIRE

[13] = molecular target: MAST1, Q9Y2H9
[14] = molecular target: MAST2, Q6P0Q8
[15] = molecular target: T5, MPP6, Q9NZW5
T5 sequence (Q9NZW5 125-219, limits assumed, looked up): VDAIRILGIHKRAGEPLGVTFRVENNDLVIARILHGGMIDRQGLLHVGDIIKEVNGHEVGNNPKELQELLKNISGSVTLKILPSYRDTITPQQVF

[16] = molecular target: NHERF2_2, Q15599
[17] = molecular target: T6, NHERF3_3, Q5T2W1
T6 sequence (Q5T2W1 238-333, limits assumed, looked up): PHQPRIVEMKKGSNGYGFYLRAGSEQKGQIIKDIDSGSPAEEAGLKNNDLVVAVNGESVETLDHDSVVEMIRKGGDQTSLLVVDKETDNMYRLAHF

[18] = molecular target: NHERF4_4, Q86UT5
[19] = molecular target: T7, PCLO, Q9Y6V0
T7 sequence (Q9Y6V0 4491-4600, limits assumed, looked up): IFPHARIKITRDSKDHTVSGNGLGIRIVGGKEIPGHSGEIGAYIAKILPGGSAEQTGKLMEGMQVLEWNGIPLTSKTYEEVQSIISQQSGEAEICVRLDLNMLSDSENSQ

[20] = molecular target: T8, PDZRN3_1, Q9UPQ7
T8 sequence (Q9UPQ7 244-349, limits assumed, looked up): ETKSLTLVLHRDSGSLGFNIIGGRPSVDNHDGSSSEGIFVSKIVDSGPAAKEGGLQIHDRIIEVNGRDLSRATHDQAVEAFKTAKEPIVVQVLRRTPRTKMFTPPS

[21] = molecular target: PICK1, Q9NRD5
[22] = molecular target: PTPN3, P26045
[23] = molecular target: T9, RHPN1, Q8TCX5
T9 sequence (Q8TCX5 508-602, limits assumed, looked up): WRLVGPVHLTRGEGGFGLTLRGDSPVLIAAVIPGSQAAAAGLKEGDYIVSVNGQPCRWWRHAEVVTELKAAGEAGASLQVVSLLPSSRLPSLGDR

[24] = molecular target: T10, SHANK1, Q9Y566
T10 sequence (Q9Y566 658-767, limits assumed, looked up): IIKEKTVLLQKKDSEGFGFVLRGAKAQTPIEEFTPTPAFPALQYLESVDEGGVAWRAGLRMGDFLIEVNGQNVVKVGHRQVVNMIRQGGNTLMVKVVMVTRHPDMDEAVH

[25] = molecular target: T11, SIPA1L2, Q9P2F8
T11 sequence (Q9P2F8 945-1036, limits assumed, looked up): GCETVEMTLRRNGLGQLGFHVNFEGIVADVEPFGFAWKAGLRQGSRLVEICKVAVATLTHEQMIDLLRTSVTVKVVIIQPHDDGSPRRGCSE

[26] = molecular target: SNX27, Q96L92
[27] = molecular target: TJP1_2, Q07157
[28] = plain residues with an end cap or a label only (N-terminal biotin on a linker: ttds)
[29] = plain residues with an end cap or a label only (N-terminal biotin on a linker: ado-ado)
[30] = plain residues with an end cap or a label only (N-terminal biotin on a linker: ahx)

Sequence of PICK1, Q9NRD5 (Q9NRD5 17-115): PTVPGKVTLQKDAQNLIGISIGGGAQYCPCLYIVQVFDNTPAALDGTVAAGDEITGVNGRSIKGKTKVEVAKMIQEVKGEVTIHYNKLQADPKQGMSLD
Sequence of PTPN3, P26045 (P26045 505-587): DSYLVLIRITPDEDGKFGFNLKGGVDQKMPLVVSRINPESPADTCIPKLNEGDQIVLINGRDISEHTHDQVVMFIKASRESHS
Sequence of TJP1_2, Q07157 (Q07157 181-274): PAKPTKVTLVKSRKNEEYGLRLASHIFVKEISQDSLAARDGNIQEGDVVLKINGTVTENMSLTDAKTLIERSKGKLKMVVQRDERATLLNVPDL
Sequence of NHERF2_2, Q15599 (Q15599 142-238): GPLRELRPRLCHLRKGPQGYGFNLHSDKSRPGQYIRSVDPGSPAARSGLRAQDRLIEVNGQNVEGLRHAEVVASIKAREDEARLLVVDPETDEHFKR
Sequence of MAST1, Q9Y2H9 (Q9Y2H9 962-1065): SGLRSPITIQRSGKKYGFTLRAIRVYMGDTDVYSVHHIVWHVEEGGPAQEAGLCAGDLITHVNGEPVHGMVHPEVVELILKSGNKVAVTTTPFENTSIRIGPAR
Sequence of IL16_4, Q14005 (Q14005 1229-1329): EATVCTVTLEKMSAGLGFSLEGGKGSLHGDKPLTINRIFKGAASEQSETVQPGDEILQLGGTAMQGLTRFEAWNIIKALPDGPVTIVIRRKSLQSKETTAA
Sequence of GORASP1, Q9BQQ3 (Q9BQQ3 1-208): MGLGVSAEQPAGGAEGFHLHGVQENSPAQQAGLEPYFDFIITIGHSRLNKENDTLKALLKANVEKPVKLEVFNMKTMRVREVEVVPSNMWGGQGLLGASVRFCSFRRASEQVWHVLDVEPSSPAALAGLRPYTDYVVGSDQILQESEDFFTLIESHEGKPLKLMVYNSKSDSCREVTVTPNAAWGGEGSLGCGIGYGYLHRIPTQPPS
Sequence of GRIP2_5, Q9C0E4 (Q9C0E4 544-642): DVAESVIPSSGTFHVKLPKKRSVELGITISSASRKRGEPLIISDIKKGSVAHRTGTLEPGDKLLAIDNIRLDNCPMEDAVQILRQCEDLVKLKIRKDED
Sequence of NHERF4_4, Q86UT5 (Q86UT5 464-550): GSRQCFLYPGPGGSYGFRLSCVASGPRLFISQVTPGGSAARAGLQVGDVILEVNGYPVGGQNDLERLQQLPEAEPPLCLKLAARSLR
Sequence of MAST2, Q6P0Q8 (Q6P0Q8 1099-1202): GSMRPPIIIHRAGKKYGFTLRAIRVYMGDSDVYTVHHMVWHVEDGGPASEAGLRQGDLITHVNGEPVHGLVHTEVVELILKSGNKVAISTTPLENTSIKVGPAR
Sequence of Inadl_8, Q8NI35 (Q8NI35 1425-1530): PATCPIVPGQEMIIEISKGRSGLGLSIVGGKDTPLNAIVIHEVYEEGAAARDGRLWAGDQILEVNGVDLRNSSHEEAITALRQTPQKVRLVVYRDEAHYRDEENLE
Sequence of LDB3, O75112 (O75112 1-94): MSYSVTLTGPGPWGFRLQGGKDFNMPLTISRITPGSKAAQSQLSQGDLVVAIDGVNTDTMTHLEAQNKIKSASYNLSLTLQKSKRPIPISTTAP
Sequence of DLG5_1, Q8TDM6 (Q8TDM6 617-713): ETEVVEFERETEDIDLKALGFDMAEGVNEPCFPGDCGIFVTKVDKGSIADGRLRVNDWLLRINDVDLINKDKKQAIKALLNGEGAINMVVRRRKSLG
Sequence of IL16_1, Q14005 (Q14005 210-306): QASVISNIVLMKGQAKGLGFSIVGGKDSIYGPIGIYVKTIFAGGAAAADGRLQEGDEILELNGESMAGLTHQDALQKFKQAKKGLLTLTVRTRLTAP
Sequence of Inadl_2, Q8NI35 (Q8NI35 238-335): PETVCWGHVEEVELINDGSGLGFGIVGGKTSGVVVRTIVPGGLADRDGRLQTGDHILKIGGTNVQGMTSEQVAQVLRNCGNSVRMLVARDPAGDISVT

## HIVEALETDV [PBK, Q96KB5]
[1]; [28]
  pKd: 3.91
[2]; [28]
  pKd: 4.31
[3]; [28]
  pKd: 5.71
[4]; [28]
  pKd: below the threshold
[5]; [28]
  pKd: below the threshold
[6]; [28]
  pKd: below the threshold
[7]; [28]
  pKd: 3.97
[8]; [28]
  pKd: below the threshold
[9]; [28]
  pKd: below the threshold
[10]; [28]
  pKd: below the threshold
[11]; [28]
  pKd: below the threshold
[12]; [28]
  pKd: 3.92
[13]; [28]
  pKd: 5.15
[14]; [28]
  pKd: 5.71
[15]; [28]
  pKd: below the threshold
[16]; [28]
  pKd: 3.97
[17]; [28]
  pKd: below the threshold
[18]; [28]
  pKd: below the threshold
[19]; [28]
  pKd: below the threshold
[20]; [28]
  pKd: below the threshold
[21]; [28]
  pKd: below the threshold
[22]; [28]
  pKd: 5.11
[23]; [28]
  pKd: 4.91
[24]; [28]
  pKd: below the threshold
[25]; [28]
  pKd: below the threshold
[26]; [28]
  pKd: 4.83
[27]; [28]
  pKd: below the threshold

## SVVSERISSV [HTR2C, P28335]
[1]; [29]
  pKd: below the threshold
[2]; [29]
  pKd: 3.84
[3]; [29]
  pKd: 4.68
[4]; [29]
  pKd: below the threshold
[5]; [29]
  pKd: below the threshold
[6]; [29]
  pKd: below the threshold
[7]; [29]
  pKd: 4.56
[8]; [29]
  pKd: below the threshold
[9]; [29]
  pKd: below the threshold
[10]; [29]
  pKd: 5.14
[11]; [29]
  pKd: below the threshold
[12]; [29]
  pKd: 3.96
[13]; [29]
  pKd: 4.02
[14]; [29]
  pKd: 4.78
[15]; [29]
  pKd: below the threshold
[16]; [29]
  pKd: below the threshold
[17]; [29]
  pKd: below the threshold
[18]; [29]
  pKd: below the threshold
[19]; [29]
  pKd: below the threshold
[20]; [29]
  pKd: 3.51
[21]; [29]
  pKd: below the threshold
[22]; [29]
  pKd: 4.8
[23]; [29]
  pKd: 4.65
[24]; [29]
  pKd: below the threshold
[25]; [29]
  pKd: below the threshold
[26]; [29]
  pKd: 5.06
[27]; [29]
  pKd: below the threshold

## SEKHFRETEV [HTLV1-TAX1, P03409]
[1]; [28]
  pKd: below the threshold
[2]; [28]
  pKd: 4.22
[3]; [28]
  pKd: 5.56
[4]; [28]
  pKd: below the threshold
[5]; [28]
  pKd: below the threshold
[6]; [28]
  pKd: below the threshold
[7]; [28]
  pKd: 4.44
[8]; [28]
  pKd: below the threshold
[9]; [28]
  pKd: below the threshold
[10]; [28]
  pKd: 3.86
[11]; [28]
  pKd: below the threshold
[12]; [28]
  pKd: 4.15
[13]; [28]
  pKd: below the threshold
[14]; [28]
  pKd: 5.42
[15]; [28]
  pKd: below the threshold
[16]; [28]
  pKd: below the threshold
[17]; [28]
  pKd: below the threshold
[18]; [28]
  pKd: below the threshold
[19]; [28]
  pKd: below the threshold
[20]; [28]
  pKd: 5.1
[21]; [28]
  pKd: below the threshold
[22]; [28]
  pKd: 5.26
[23]; [28]
  pKd: 4.08
[24]; [28]
  pKd: below the threshold
[25]; [28]
  pKd: below the threshold
[26]; [28]
  pKd: 5.72
[27]; [28]
  pKd: below the threshold

## EKLSSIESDV [GRIN2B, Q13224]
[1]; [30]
  pKd: 3.71
[2]; [30]
  pKd: 3.56
[3]; [30]
  pKd: 4.96
[4]; [30]
  pKd: below the threshold
[5]; [30]
  pKd: below the threshold
[6]; [30]
  pKd: below the threshold
[7]; [30]
  pKd: 4.02
[8]; [30]
  pKd: below the threshold
[9]; [30]
  pKd: below the threshold
[10]; [30]
  pKd: below the threshold
[11]; [30]
  pKd: below the threshold
[12]; [30]
  pKd: below the threshold
[13]; [30]
  pKd: 4.04
[14]; [30]
  pKd: 4.49
[15]; [30]
  pKd: below the threshold
[16]; [30]
  pKd: below the threshold
[17]; [30]
  pKd: below the threshold
[18]; [30]
  pKd: below the threshold
[19]; [30]
  pKd: below the threshold
[20]; [30]
  pKd: 3.7
[21]; [30]
  pKd: below the threshold
[22]; [30]
  pKd: 4.35
[23]; [30]
  pKd: 4.73
[24]; [30]
  pKd: below the threshold
[25]; [30]
  pKd: below the threshold
[26]; [30]
  pKd: 3.87
[27]; [30]
  pKd: below the threshold
